Where two headings read alike, the source gives them in different places.
Key:
Experiment in all cases: cell-based or functional assay
[1] = target: cation-independent mannose-6-phosphate/IGF-II receptor on GM4668 human skin fibroblasts (human) (UniProt P11717)
[2] = target: cation-independent mannose-6-phosphate/IGF-II receptor on GM4668 human skin fibroblasts (human) (UniProt P11717); remark: listed apart in the source
[3] = target: cation-independent mannose-6-phosphate/IGF-II receptor on GM4668 human skin fibroblasts (human) (UniProt P11717); remark: listed apart in the source
[4] = target: cation-independent mannose-6-phosphate/IGF-II receptor on GM4668 human skin fibroblasts (human) (UniProt P11717); remark: listed apart in the source

UniProt P11717, sequence (P11717 41-2491): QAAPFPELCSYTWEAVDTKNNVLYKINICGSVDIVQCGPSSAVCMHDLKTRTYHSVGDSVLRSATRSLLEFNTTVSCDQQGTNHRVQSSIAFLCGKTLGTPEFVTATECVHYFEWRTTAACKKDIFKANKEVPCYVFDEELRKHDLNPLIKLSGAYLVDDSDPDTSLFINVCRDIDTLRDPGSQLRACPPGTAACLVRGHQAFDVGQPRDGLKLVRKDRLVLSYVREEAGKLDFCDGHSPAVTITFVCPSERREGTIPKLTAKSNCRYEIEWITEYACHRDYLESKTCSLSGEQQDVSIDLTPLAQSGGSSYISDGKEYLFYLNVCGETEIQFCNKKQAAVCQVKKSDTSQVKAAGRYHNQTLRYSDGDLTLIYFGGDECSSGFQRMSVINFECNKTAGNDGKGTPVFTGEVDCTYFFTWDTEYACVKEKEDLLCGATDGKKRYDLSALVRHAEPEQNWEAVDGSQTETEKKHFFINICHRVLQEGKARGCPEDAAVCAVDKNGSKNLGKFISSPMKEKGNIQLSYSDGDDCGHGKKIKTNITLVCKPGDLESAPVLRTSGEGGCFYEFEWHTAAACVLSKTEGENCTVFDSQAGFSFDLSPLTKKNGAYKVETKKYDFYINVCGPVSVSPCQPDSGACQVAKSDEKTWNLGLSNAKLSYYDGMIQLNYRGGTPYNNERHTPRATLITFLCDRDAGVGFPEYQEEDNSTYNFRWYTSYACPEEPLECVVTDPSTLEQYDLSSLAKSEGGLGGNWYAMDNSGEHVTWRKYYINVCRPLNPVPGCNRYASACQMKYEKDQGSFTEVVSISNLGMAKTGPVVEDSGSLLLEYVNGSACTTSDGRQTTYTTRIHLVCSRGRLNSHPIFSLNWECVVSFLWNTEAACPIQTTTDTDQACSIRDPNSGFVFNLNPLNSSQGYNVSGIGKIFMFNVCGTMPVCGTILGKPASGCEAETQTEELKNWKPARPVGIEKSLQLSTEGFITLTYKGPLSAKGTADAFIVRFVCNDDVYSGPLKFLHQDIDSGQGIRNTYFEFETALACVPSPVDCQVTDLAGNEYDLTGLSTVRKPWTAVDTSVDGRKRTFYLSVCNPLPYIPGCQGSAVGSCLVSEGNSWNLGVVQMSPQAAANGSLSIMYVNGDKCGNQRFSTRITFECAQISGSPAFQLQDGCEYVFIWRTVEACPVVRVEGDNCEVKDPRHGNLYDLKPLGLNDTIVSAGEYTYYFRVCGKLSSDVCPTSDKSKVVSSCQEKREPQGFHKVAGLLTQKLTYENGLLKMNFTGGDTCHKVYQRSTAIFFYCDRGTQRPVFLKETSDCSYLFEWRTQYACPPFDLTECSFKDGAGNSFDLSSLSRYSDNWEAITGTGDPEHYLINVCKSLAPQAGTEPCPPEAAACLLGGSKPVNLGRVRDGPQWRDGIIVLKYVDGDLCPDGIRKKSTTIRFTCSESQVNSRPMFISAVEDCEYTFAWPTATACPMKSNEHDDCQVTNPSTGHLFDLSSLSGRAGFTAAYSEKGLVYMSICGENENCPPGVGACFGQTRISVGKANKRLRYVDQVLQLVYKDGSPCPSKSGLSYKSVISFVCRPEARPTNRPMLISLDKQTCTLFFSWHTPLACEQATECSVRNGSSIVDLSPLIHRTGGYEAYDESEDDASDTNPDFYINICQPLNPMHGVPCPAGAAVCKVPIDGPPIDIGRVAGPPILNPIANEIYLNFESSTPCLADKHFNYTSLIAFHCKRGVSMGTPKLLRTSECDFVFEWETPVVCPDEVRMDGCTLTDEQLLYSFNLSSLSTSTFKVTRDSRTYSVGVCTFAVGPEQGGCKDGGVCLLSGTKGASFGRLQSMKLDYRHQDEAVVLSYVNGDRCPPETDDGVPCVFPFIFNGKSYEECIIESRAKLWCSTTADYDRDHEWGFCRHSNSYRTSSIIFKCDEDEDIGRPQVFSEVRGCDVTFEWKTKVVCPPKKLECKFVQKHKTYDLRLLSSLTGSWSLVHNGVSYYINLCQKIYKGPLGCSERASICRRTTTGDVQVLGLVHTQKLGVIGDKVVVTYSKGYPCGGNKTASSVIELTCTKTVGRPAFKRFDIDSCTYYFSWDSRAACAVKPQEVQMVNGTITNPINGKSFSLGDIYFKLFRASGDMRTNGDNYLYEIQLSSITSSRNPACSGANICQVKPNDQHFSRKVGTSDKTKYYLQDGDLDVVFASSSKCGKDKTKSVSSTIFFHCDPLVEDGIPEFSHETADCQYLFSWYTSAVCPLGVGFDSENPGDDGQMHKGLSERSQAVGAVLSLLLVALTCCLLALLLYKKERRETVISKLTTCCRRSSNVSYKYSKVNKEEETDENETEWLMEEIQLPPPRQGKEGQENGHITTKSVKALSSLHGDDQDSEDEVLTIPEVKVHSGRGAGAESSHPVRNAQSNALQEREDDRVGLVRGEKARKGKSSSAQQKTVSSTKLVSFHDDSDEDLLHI

Molecule	% IGF-II + M6P inhibition of uptake [2] [%]	% IGF-II inhibition of uptake [2] [%]	% M6P inhibition of uptake [2] [%]	+IGF-II (units/mg), uptake with excess IGF-II [2] [units/mg]	+IGF-II + M6P (units/mg), uptake with both inhibitors [2] [units/mg]	+M6P (units/mg), uptake with 8 mM M6P [2] [units/mg]	Uptake (units/mg), 22.5 h [2] [units/mg]	% IGF-II inhibition of uptake [3] [%]	+IGF-II Uptake (units/mg) [3] [units/mg]	Uptake (units/mg), 21 h [3] [units/mg]	other results
CHO GUS-GILTΔ1-7 (from UniProt P08236 23-651)	–	–	–	–	–	–	–	–	–	–	% IGF-II inhibition of uptake [1]: 73%; % M6P inhibition of uptake [1]: 28%; +IGF-II (units/mg), uptake with excess IGF-II [1]: 84 units/mg; +M6P (units/mg), uptake with excess M6P [1]: 223 units/mg; Uptake (units/mg), 18 h [1]: 310 units/mg
CHO GUSΔC18-GILTΔ1-7 (from UniProt P08236 23-633)	100	70	60	473	0	639	1580	75	1010	4080	% IGF-II inhibition of uptake [1]: 63%; % M6P inhibition of uptake [1]: 41%; +IGF-II (units/mg), uptake with excess IGF-II [1]: 258 units/mg; +M6P (units/mg), uptake with excess M6P [1]: 412 units/mg; Uptake (units/mg), 18 h [1]: 704 units/mg
GILT-GUS with Δ1-7 and Y27L mutations in the IGF-II portion, Leishmania-expressed (from UniProt P08236 23-651)	–	–	–	–	–	–	–	–	–	–	cell-associated GUS activity in GM4668 fibroblasts, relative to unmodified GUS [1]: 5 fold
GUS-IGF-II fusion protein (GUS-GILT), Leishmania-expressed	–	–	–	–	–	–	–	–	–	–	cell-associated GILT-GUS in GM4668 fibroblasts, no competitor (units/mg lysate) [1]: > 24; cell-associated GILT-GUS in GM4668 fibroblasts, with about 100-fold molar excess of IGF-II [1]: 5.4 U; cell-associated GUS activity in GM4668 fibroblasts, relative to unmodified GUS [1]: 10 fold
HEK GUS-GILT (from UniProt P08236 23-651)	–	–	–	–	–	–	–	–	–	1430	–
HEK GUS-GILTF19S (from UniProt P08236 23-651)	99.1	86	60	217	15	952	1590	90.7	439	4730	–
HEK GUSΔC18-GILTΔ1-7 (from UniProt P08236 23-633)	–	–	–	–	–	–	–	77	1210	5190	–
CHO GUS (enzyme, UniProt P08236 23-651, looked up) LQGGMLYPQESPSRECKELDGLWSFRADFSDNRRRGFEEQWYRRPLWESGPTVDMPVPSSFNDISQDWRLRHFVGWVWYEREVILPERWTQDLRTRVVLRIGSAHSYAIVWVNGVDTLEHEGGYLPFEADISNLVQVGPLPSRLRITIAINNTLTPTTLPPGTIQYLTDTSKYPKGYFVQNTYFDFFNYAGLQRSVLLYTTPTTYIDDITVTTSVEQDSGLVNYQISVKGSNLFKLEVRLLDAENKVVANGTGTQGQLKVPGVSLWWPYLMHERPAYLYSLEVQLTAQTSLGPVSDFYTLPVGIRTVAVTKSQFLINGKPFYFHGVNKHEDADIRGKGFDWPLLVKDFNLLRWLGANAFRTSHYPYAEEVMQMCDRYGIVVIDECPGVGLALPQFFNNVSLHHHMQVMEEVVRRDKNHPAVVMWSVANEPASHLESAGYYLKMVIAHTKSLDPSRPVTFVSNSNYAADKGAPYVDVICLNSYYSWYHDYGHLELIQLQLATQFENWYKKYQKPIIQSEYGAETIAGFHQDPPLMFTEEYQKSLLEQYHLGLDQKRRKYVVGELIWNFADFMTEQSPTRVLGNKKGIFTRQRQPKSAAFLLRERYWKIANETRYPHSVAKSQCLENSLFT	–	–	–	–	–	–	–	–	–	–	% IGF-II inhibition of uptake [4]: 5%; % M6P inhibition of uptake [4]: 99.7%; % inhibition of uptake by excess IGF-II [4]: 4.5%; +IGF-II (units/mg), uptake with excess IGF-II [4]: 336 units/mg; +M6P (units/mg), uptake with excess M6P [4]: 1 units/mg; Uptake (units/mg), 18 h [4]: 352 units/mg

Second part, led by results:

% IGF-II + M6P inhibition of uptake [2] [%]	% IGF-II inhibition of uptake [2] [%]	% M6P inhibition of uptake [2] [%]	+IGF-II (units/mg), uptake with excess IGF-II [2] [units/mg]	+IGF-II + M6P (units/mg), uptake with both inhibitors [2] [units/mg]	+M6P (units/mg), uptake with 8 mM M6P [2] [units/mg]	Uptake (units/mg), 22.5 h [2] [units/mg]	% IGF-II inhibition of uptake [3] [%]	+IGF-II Uptake (units/mg) [3] [units/mg]	Uptake (units/mg), 21 h [3] [units/mg]	Molecule	other results
100	98.2	31	22	0	846	1230	90.8	388	4230	HEK GUS-GILTF19SE12K (from UniProt P08236 23-651)	–
–	–	–	–	–	–	–	–	–	1510	HEK GUS-GILTY27L (from UniProt P08236 23-651)	–
